Laboratory results as given in CN116082503A.

Target: T细胞表面未知蛋白 (unknown protein on the surface of CD3+ T cells)
Assay: cell-based or functional assay

IGSF9-ECD-His (带有His标签的人IGSF9胞外区蛋白) (receptor)
T细胞增殖抑制, 剂量依赖 (dose at which inhibition of T cell proliferation becomes evident): > 0.5 µg
